From the Human Domainome abundance scans (Beltran et al. 2025)
± gives the uncertainty stated by the source.

B1: Ankyrin-2, residues 3571 to 3650; numbered along this chain, Q01484 (parent)
chain: ERLAYIADHLGFSWTELARELDFTEEQIHQIRIENPNSLQDQSHALLKYWLERDGKHATDTNLVECLTKINRMDIVHLME

Variants of: B1
Test: abundance fitness (aPCA) (normalised: wild type 0, dead -1); higher = more abundant; growth selection in yeast, the domain comes from the species named
Conditions: Homo sapiens

Point of comparison: ERLAYIADHLGFSWTELARELDFTEEQIHQIRIENPNSLQDQSHALLKYWLERDQKHATDTNLVECLTKINRMDIVHLME, abundance fitness 0.008 ± 0.047. Against it:
- ERLAYIADHLGFSWMELARELDFTEEQIHQIRIENPNSLQDQSHALLKYWLERDGKHATDTNLVECLTKINRMDIVHLME — lower, -0.21 ± 0.13
- ERLAYIADHLGFSWTELARELDFTEEQIHQIRIENPNSLQDQSHALLKYWLERDKKHATDTNLVECLTKINRMDIVHLME — within error, -0.094 ± 0.066
- ERLAYIADHLGFSWTELARELDFTEEQIHQIRIENPNSLQDQSHALLKYWLERDVKHATDTNLVECLTKINRMDIVHLME — within error, -0.038 ± 0.034
- ERLLYIADHLGFSWTELARELDFTEEQIHQIRIENPNSLQDQSHALLKYWLERDGKHATDTNLVECLTKINRMDIVHLME — within error, -0.058 ± 0.04
- ERLFYIADHLGFSWTELARELDFTEEQIHQIRIENPNSLQDQSHALLKYWLERDGKHATDTNLVECLTKINRMDIVHLME — higher, 0.129 ± 0.068
- ERLAYIADHLGFSWTELARELDFTEEQIHQIRIENPNSLQDQSHLLLKYWLERDGKHATDTNLVECLTKINRMDIVHLME — within error, -0.002 ± 0.13
- ERLAYIADHLGFSWTELARELDFTEEQIHQIRIENPNSLQDQSHALLKYWLERDGKHYTDTNLVECLTKINRMDIVHLME — within error, 0.026 ± 0.19
- ERLAYIADHLGFSWTELARELDFTEEQIHQIRIENPNSLQDQSHALLKYWLERDGKHATDTNLVEDLTKINRMDIVHLME — lower, -0.363 ± 0.15
- ERLAYIADHLGFSWTELARELDFTEEQIHQIRIENPNSLQDQSHALLKYWLERDGKHATDTNLVECLTKINGMDIVHLME — lower, -0.204 ± 0.12
- ERLAYIADHLGFSWTELARELDFTEEQIHQIRRENPNSLQDQSHALLKYWLERDGKHATDTNLVECLTKINRMDIVHLME — within error, 0.011 ± 0.055
- ERLAYIADHLGFSWTELARELDFTEEQPHQIRIENPNSLQDQSHALLKYWLERDGKHATDTNLVECLTKINRMDIVHLME — lower, -0.833 ± 0.12
- ERLAYIADHLGFSWTELARELDFTEEQEHQIRIENPNSLQDQSHALLKYWLERDGKHATDTNLVECLTKINRMDIVHLME — lower, -0.171 ± 0.067
- ERLAYIADHLGFSWTELSRELDFTEEQIHQIRIENPNSLQDQSHALLKYWLERDGKHATDTNLVECLTKINRMDIVHLME — lower, -0.196 ± 0.089
- ERLAYIADHLGFSWTELARELDFTEEQIHQIRIENPNSLQDQSHALEKYWLERDGKHATDTNLVECLTKINRMDIVHLME — lower, -0.673 ± 0.057
- ERLAYIADHLGFSWTELARELDFTEEQIHQIRIENPNSLQDQSHALLKYWLERDGKHATDTNLVECLTKINRLDIVHLME — within error, 0.04 ± 0.41
- ERLAYIADHLGFSWTELARELDFTEEQIHQIRIENPNSLQDQSHALLKYWLERDGQHATDTNLVECLTKINRMDIVHLME — within error, -0.067 ± 0.12
- ERLAYIADHLGFSWTELARELDFTEEQIHQIRIENPNSLQDQSHALLKYWLERDGNHATDTNLVECLTKINRMDIVHLME — within error, -0.071 ± 0.1
- ERLAYIADHLGFSWTELARELDFTEEQIHQIRIENPNSLQDQSHALLKPWLERDGKHATDTNLVECLTKINRMDIVHLME — lower, -0.513 ± 0.064
- ERLAYIADHLGFSWTELARELDFTEEQIHQIRIENPNSLQDQSHALLKYWLERDGKHATDTNLVECLHKINRMDIVHLME — within error, 0.068 ± 0.13
- ERLAYIADHLGFSWTELARELDFTEEQIHQIRIENPNSLQDQSHALLKYWLERDGKHATDTNLVECLRKINRMDIVHLME — within error, -0.071 ± 0.051
- ERLAYIADHLGFSWTELARELDFTEEQIHQIRIENPNSLQDQSHALLKYWLERDGKHATDDNLVECLTKINRMDIVHLME — within error, -0.017 ± 0.12
- ERLAYIADHLGFSWTELARELDFTEEQIHQIRIENPNSLQDQSHAWLKYWLERDGKHATDTNLVECLTKINRMDIVHLME — within error, 0.141 ± 0.48
- ERLAYIADHLGFSWTELARELDFTEEQIHQIRIENPNSLQDQSRALLKYWLERDGKHATDTNLVECLTKINRMDIVHLME — lower, -0.226 ± 0.12
- ERLAYIADHLGFSWTELARELDFTEEQIHQIRIENRNSLQDQSHALLKYWLERDGKHATDTNLVECLTKINRMDIVHLME — within error, -0.076 ± 0.047
- ERLAYIADHLGFSWTESARELDFTEEQIHQIRIENPNSLQDQSHALLKYWLERDGKHATDTNLVECLTKINRMDIVHLME — lower, -1.03 ± 0.12
- ERLAYIADHLGFSWTECARELDFTEEQIHQIRIENPNSLQDQSHALLKYWLERDGKHATDTNLVECLTKINRMDIVHLME — within error, -0.035 ± 0.089
- ERLAYIADHLGFSWTEGARELDFTEEQIHQIRIENPNSLQDQSHALLKYWLERDGKHATDTNLVECLTKINRMDIVHLME — lower, -1.04 ± 0.094
- ERLAYIADHLGFSWTETARELDFTEEQIHQIRIENPNSLQDQSHALLKYWLERDGKHATDTNLVECLTKINRMDIVHLME — lower, -0.235 ± 0.086
- ERLAYIADHLGFSWTELARELDFTEEQIHQIRIENPNYLQDQSHALLKYWLERDGKHATDTNLVECLTKINRMDIVHLME — lower, -0.474 ± 0.41
- ERLAYIADALGFSWTELARELDFTEEQIHQIRIENPNSLQDQSHALLKYWLERDGKHATDTNLVECLTKINRMDIVHLME — within error, -0.113 ± 0.24
- ERLAYIADPLGFSWTELARELDFTEEQIHQIRIENPNSLQDQSHALLKYWLERDGKHATDTNLVECLTKINRMDIVHLME — lower, -0.268 ± 0.17
- ERLAYIADHLGFSWTELARELDFTEEQIHQIQIENPNSLQDQSHALLKYWLERDGKHATDTNLVECLTKINRMDIVHLME — within error, 0.081 ± 0.079
- ERLAYIADHLGFSWTELARELDFTEEQIHQIRIENPNSLQDQSHALLKYWLERDGKHATDTNLVECLTKINRMEIVHLME — lower, -0.151 ± 0.11
- ERLAYIADHLGFSWTELARELDFTEEQIHQIRIENPNSLQDQSHALLKYWLERDGKHATDTNLVECLTKINRMMIVHLME — lower, -0.839 ± 0.26
- ERLAYIADHLGFSWTELARELDFTEEQIHQIRIENPNSLQDQSHALLKYWLERDGKHATDTNLVECLTKINRMIIVHLME — lower, -0.692 ± 0.22
- ERLAYIADHLRFSWTELARELDFTEEQIHQIRIENPNSLQDQSHALLKYWLERDGKHATDTNLVECLTKINRMDIVHLME — within error, -0.074 ± 0.063
- ERLAYIADHLLFSWTELARELDFTEEQIHQIRIENPNSLQDQSHALLKYWLERDGKHATDTNLVECLTKINRMDIVHLME — lower, -0.117 ± 0.058
- ERLAYIADHLTFSWTELARELDFTEEQIHQIRIENPNSLQDQSHALLKYWLERDGKHATDTNLVECLTKINRMDIVHLME — lower, -0.141 ± 0.072
- ERLAYIADHLGFSWTELARELYFTEEQIHQIRIENPNSLQDQSHALLKYWLERDGKHATDTNLVECLTKINRMDIVHLME — within error, -0.158 ± 0.16
- ERLAYIADHLGFSWTELARELDFTEEQIHQIRIENPNSLQDQSHALLKYCLERDGKHATDTNLVECLTKINRMDIVHLME — within error, -0.053 ± 0.096
- ERLAYIADHLGFSWTELARELDFTEEQIHQIRIENPNSLQDQSHALLKYELERDGKHATDTNLVECLTKINRMDIVHLME — lower, -0.316 ± 0.1
- ERLAYIADHLGFSWTELARELDFVEEQIHQIRIENPNSLQDQSHALLKYWLERDGKHATDTNLVECLTKINRMDIVHLME — lower, -0.248 ± 0.079
- ERLAYIADHLGNSWTELARELDFTEEQIHQIRIENPNSLQDQSHALLKYWLERDGKHATDTNLVECLTKINRMDIVHLME — within error, -0.158 ± 0.2
- ERLAYIADHLGFSWTELARELDFTEEQIHQIRIENPNSLQDQSHALLKYWLERDGKHATDTNLVECLTKKNRMDIVHLME — lower, -0.784 ± 0.49
- ERLAYIADHLGFSWTELARELDFTEEQIHQIRIENPNSLQDQSHALLKYWLERDGKHATDTNLVECLTKMNRMDIVHLME — within error, -0.002 ± 0.16
- ERLAYIADHLGFSWTELARELDFTEEQIHQIRIENPNSLQDQSHALLKYWLELDGKHATDTNLVECLTKINRMDIVHLME — lower, -0.236 ± 0.068
- ERLAYIADHLGFSWTELARELDFTEEQIHQIRIENPNSLQDQSHALLKYWLERDGKHATDTNLVECLTKINRMDMVHLME — within error, 0.076 ± 0.25
- ERLAYIADHLGFSWTELARELDFTEEQIHQIRIENPNSLQDQSHALLKYWLERDGKHATDTNCVECLTKINRMDIVHLME — within error, -0.044 ± 0.13
- ERLAYIADHLGFSWTELARELDFTEEQIHQIRIENPNSLQDQSHALLKYWLERDGKHATDTNEVECLTKINRMDIVHLME — lower, -0.657 ± 0.12
- ERLAYIADHLGFSWTELARELDFTEEQIHQIRIENPNSLQDQSHALLKYWLERDGKHATHTNLVECLTKINRMDIVHLME — lower, -0.286 ± 0.16
- ERLAYIADHLGFSWTELARELDFTEEQIHQIRIENPNSLQDQSHALLKYWLERDGKHATRTNLVECLTKINRMDIVHLME — within error, -0.082 ± 0.049
- ERLAYIADHLGFSWTELARELDFTEEQIHQIRIENPNSLQDQSHALLKYWLERDGKHAFDTNLVECLTKINRMDIVHLME — lower, -0.159 ± 0.099
- ERLAYIADHLGFSWTELARELDFTEEQIHQIRIENPNSLQDQSHALLKYWLERDGKHAHDTNLVECLTKINRMDIVHLME — within error, -0.055 ± 0.08
- ERLAYIADHLGFSWTELARELDFTEEQIHQIRIENPNSLQDQSHALLKYWLERDGKHANDTNLVECLTKINRMDIVHLME — within error, -0.054 ± 0.21
- ERLAYIADHLGFSWTELARELDFTEEQIHQIRIENPNSLSDQSHALLKYWLERDGKHATDTNLVECLTKINRMDIVHLME — within error, -0.069 ± 0.075
- ERLAYIADHLGFSWTELARELDFTEEQIHQIRIENPNSLQDQSHALLWYWLERDGKHATDTNLVECLTKINRMDIVHLME — lower, -0.171 ± 0.11
- ERLAYIADHLGFSWTELAREWDFTEEQIHQIRIENPNSLQDQSHALLKYWLERDGKHATDTNLVECLTKINRMDIVHLME — within error, -0.093 ± 0.08
- ERLAYIADHLGFSWTELARELDFTEEQIHIIRIENPNSLQDQSHALLKYWLERDGKHATDTNLVECLTKINRMDIVHLME — within error, -0.076 ± 0.11
- ERLAYIADHLGFSWTELARELDFTEEQIHHIRIENPNSLQDQSHALLKYWLERDGKHATDTNLVECLTKINRMDIVHLME — within error, -0.045 ± 0.13
- ERLAYIADHLGFSWTELARELDFTEEQIHCIRIENPNSLQDQSHALLKYWLERDGKHATDTNLVECLTKINRMDIVHLME — within error, -0.044 ± 0.1
- ERLAYIADHLGFSWTFLARELDFTEEQIHQIRIENPNSLQDQSHALLKYWLERDGKHATDTNLVECLTKINRMDIVHLME — within error, -0.09 ± 0.13
- ERLAYIADHLGFSWTELARELDFTEEQIHQIRIENPNSLQDWSHALLKYWLERDGKHATDTNLVECLTKINRMDIVHLME — lower, -0.481 ± 0.27
- ERLAYIADHLGFSWTELARELDFTEEQIHQIRIENPTSLQDQSHALLKYWLERDGKHATDTNLVECLTKINRMDIVHLME — within error, -0.093 ± 0.088
- ERLAYIADHLGFSWTELARELDFTEEQIHQIRIENPGSLQDQSHALLKYWLERDGKHATDTNLVECLTKINRMDIVHLME — within error, -0.028 ± 0.048
- ERLAYIADHLGFSWTELARELDFTEEQIHQIRIENPNSLQDQSHALLKYWLERDGKHATDTALVECLTKINRMDIVHLME — within error, -0.001 ± 0.053
- ERLAYIADHLGFSWTELARELDFTEEQIHQIRIENPNSLQDQSHALLKYWLERDGKHATDTNLVVCLTKINRMDIVHLME — lower, -0.099 ± 0.058
- ERLAYIADHLGFSWTELARELDFTEENIHQIRIENPNSLQDQSHALLKYWLERDGKHATDTNLVECLTKINRMDIVHLME — within error, 0.08 ± 0.41
- ERLAYIADHLGFSWTELARELDFTEESIHQIRIENPNSLQDQSHALLKYWLERDGKHATDTNLVECLTKINRMDIVHLME — within error, 0.006 ± 0.071
